Reference: paper PMC3406685

Assays:
Assay in all cases: real-time label-free cell adhesion
[1] = biological target: Collagen Toolkit II peptide II-27
[2] = biological target: Collagen Toolkit III peptide III-7
[3] = biological target: triple-helical peptide II-27-A (GVOGEA within (GPP)5 hosts)

increase of adhesion on substitution of Mg2+ with Mn2+ [1]: 65% | increase of adhesion on substitution of Mg2+ with Mn2+ [2]: 26% | adhesion relative to that on II-27 [3]: 40% | increase of adhesion on substitution of Mg2+ with Mn2+ [3]: 13%
Substance: integrin α1β1 on rat pheochromocytoma PC12 cells (from UniProt P18614 29-1180; P49134 21-799) (receptor)
